Changes are numbered by the printed parent chain.
B1: G14 (antibody, V domains shown)
VH: QVQLLESGGGVVQPGRSLRLSCAASGFTFSSYAMHWVRQAPGKGLEWVAFISHDGNRNSYADSVRGRFTISRDNSKNTLYLQMNSLRAEDTAVYYCARDLGYYNGFSYWGQGTLVTVSA
VL: DIVMTQSPSSVSASVGDRVTITCRASQGISSWLAWYQQKPGKAPKLLIYAASSLQSGVPSRFSGSGSGTDFTLTISSLQPEDFATYYCQQANSFPPTFGPGTKVDIK
notes: Full human antibody from a Fab phage library; Tested as a mAb (detected with anti-human IgG, captured on Protein A); also called FAP-G14; FAP-G14-Bio (biotin-conjugated form)
B2: J40 (antibody, V domains shown)
VH: EVQLLESGGGLVQPGGSLRLSCAASGFTFSSYAMSWVRQAPGKGLEWVSAISGSGGSTYYADSVKGRFTISRDNSKNTLYLQMNSLRTDDTAVYYCARDLTTSTGWESWGQGTLVTVSA
VL: B1 VL with D1N, V3Q, P100Q, V104L, D105E
notes: Tested as a mAb; also called FAP-J40; FAP-J40-Bio (biotin-conjugated form)
B3: I37 (antibody, V domains shown)
VH: QLQLVESGGGLVQPGGSLRLSCAASGFTFSSYAMSWVRQAPGKGLEWVSAISGSGGSTYYADSVKGRFTISRDNSKNTLYLQMNSLRAEDTAVYYCARDKPWGGSFDYWGQGTLVTVSA
VL: B1 VL with V3Q, M4L, V11L, P96V
notes: Tested as a mAb; also called FAP-I37
B4: I30 (antibody, V domains shown)
VH: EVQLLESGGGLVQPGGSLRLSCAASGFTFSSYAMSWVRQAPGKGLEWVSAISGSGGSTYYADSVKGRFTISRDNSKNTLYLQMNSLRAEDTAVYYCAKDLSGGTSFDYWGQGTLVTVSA
VL: B1 VL with D1A, V3R, M4L, P100G, D105E
notes: Tested as a mAb; also called 130; FAP-I30

target: T1, human FAPα-His tag (Sino biological) (human, UniProt Q12884 26-760); assay: competitive ELISA on coated human FAPα; competitor (detected): FAP-I37-Bio
T1 construct: Bought protein; also called human FAPα-His protein; not shown: His tag
T1 sequence (looked up): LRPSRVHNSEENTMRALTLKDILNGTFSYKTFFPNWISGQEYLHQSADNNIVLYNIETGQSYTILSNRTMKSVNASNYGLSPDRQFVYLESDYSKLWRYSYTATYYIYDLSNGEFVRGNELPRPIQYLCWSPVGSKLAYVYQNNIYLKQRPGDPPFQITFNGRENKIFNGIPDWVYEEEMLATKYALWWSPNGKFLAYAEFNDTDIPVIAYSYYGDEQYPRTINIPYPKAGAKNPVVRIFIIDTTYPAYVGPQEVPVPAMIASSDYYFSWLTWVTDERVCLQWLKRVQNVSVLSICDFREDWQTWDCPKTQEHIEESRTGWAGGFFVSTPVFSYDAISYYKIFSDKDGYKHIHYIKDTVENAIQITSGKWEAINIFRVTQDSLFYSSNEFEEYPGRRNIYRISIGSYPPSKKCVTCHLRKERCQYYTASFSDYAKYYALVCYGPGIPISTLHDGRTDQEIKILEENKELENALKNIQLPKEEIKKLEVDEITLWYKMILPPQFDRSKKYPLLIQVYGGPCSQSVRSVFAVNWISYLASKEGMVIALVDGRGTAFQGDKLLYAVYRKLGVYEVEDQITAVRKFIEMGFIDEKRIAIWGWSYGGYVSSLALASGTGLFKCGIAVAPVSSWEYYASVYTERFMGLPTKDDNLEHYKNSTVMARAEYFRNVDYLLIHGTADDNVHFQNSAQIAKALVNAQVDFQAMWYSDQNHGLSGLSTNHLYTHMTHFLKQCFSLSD
Protocol: Competitive ELISA was carried out to classify the FAPα mAbs based on the binding epitope to human FAPα.
(§1) Briefly, microtiter plates were coated with human FAPα proteins at 0.5 μg/ml in PBS, 100 μl/well at 4° C. overnight, then blocked with 150 μl/well of 1% BSA. Serial dilutions of chimeric antibodies as well as biotin-conjugated reference mAb were added to each well and incubated for 1 hour at RT. The plates were washed with PBS/Tween and then incubate with streptavidin-HRP for 15 mins at RT. After washing, the plates were developed with TMB substrate and analyzed by spectrophotometer at OD 450 nm. According to the competition ability to reference mAbs (Benchmark, or “BMK”), all tested FAPα mAbs binds to the similar epitope as shown in Table 5.

Binder	OD 450 nm [OD 450 nm]
B1	0.457
B2	0.435
B3	0.602
B4	0.219

target: T2, human FAPα on CHO-K1-hFAPα cells (human, UniProt Q12884 1-760); assay: flow cytometry on CHO-K1-hFAPα cells
T2 construct: whole, on cells; also called cell-surface FAPα
T2 sequence (looked up): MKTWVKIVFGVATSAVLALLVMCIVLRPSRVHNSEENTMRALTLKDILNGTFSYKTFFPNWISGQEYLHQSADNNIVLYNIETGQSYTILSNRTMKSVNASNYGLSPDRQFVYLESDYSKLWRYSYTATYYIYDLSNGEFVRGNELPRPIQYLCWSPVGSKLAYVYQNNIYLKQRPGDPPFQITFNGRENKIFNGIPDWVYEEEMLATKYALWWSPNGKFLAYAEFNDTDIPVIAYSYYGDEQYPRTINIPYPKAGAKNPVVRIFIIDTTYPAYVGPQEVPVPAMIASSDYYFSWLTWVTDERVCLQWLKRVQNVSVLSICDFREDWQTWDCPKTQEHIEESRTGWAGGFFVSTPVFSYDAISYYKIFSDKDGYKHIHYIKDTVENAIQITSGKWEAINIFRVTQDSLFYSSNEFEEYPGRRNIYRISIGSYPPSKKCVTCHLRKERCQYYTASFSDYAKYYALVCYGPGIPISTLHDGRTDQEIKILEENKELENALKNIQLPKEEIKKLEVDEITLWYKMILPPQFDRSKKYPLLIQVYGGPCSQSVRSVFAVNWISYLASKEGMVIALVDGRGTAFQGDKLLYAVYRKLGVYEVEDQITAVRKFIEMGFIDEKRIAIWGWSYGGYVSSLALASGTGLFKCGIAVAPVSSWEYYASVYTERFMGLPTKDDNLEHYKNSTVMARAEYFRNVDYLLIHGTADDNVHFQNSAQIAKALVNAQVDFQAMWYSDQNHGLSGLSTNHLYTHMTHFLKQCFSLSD
Protocol: To evaluate the cell-based binding property to human FAPα, the tested antibodies were analyzed for their binding to CHO-K1-hFAPα by FACS. A total number of 1×10⁵ CHO-K1-hFAPα cells in each well were incubated with 4-fold serial diluted antibodies starting from 3 μg/ml for 30 minutes at 4° C. in FACS buffer. After wash by FACS buffer, PE conjugated-anti-human IgG antibody was added to each well and incubated at 4° C. for 30 minutes. After wash, MFI of PE was evaluated by MACSQuant Analyzer 16.

Binder	EC50 [ng/mL]
B1	0.073
B2	0.025
B3	0.057
B4	0.08

target: T1, human FAPα-His tag (Sino biological); assay: competitive ELISA on coated human FAPα; biotinylated mAb alone, no competing Ab (row '0')
Protocol: as §1

Binder	OD 450 nm [OD 450 nm]
B1	2.15
B2	1.2
B3	1.72
B4	1.49

— patent US20250297032A1 (CONCEPT TO MEDICINE BIOTECH, published 2025)
